Article PMC10590968, “Deciphering the role of recurrent FAD-dependent enzymes in bacterial phosphonate catabolism” (iScience, 2023)

What was measured:
[1] = target: T1, PbfC (Azospirillum sp. B510, UniProt P0DY71); assay: UV-vis spectra of bound flavin; cofactor released by heat or SDS; type: binding; conditions: noncovalent; 10 μM FAD added during purification; 50 mM TEA-HCl pH 8.0
T1 construct: synthetic codon-optimised gene in pET28a, N-terminal His tag, expressed in E. coli Tuner (DE3), HisTrap and SEC; noncovalent FAD
T1 sequence (P0DY71 1-415): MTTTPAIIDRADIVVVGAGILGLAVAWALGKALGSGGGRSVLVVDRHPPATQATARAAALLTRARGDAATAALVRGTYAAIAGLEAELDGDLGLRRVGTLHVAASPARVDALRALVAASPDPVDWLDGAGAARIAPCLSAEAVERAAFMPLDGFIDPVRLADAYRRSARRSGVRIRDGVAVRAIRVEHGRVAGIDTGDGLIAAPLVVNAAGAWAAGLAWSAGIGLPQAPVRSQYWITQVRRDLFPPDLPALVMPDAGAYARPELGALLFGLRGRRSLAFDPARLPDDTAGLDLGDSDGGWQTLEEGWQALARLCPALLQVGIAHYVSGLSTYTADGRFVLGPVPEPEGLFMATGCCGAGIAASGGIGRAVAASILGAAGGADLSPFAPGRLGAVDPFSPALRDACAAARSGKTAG

[2] = target: T2, PbfD1 (Acinetobacter baumannii, UniProt P0DY72); assay: as above; type: binding; conditions: noncovalent; 10 μM FAD added at lysis; 50 mM TEA-HCl pH 8.0
T2 construct: gene pbfD; synthetic codon-optimised gene in pET28a, N-terminal His tag, expressed in E. coli Tuner (DE3), HisTrap; noncovalent FAD
T2 sequence (P0DY72 1-384): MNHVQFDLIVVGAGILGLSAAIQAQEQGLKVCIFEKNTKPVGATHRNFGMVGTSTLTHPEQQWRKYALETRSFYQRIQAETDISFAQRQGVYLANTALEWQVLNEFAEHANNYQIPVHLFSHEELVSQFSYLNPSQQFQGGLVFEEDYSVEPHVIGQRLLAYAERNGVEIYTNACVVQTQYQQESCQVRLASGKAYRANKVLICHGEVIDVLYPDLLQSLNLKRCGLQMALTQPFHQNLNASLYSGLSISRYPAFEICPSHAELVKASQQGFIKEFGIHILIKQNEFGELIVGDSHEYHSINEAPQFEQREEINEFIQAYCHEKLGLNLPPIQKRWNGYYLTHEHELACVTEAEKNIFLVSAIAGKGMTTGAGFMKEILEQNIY

[3] = target: T3, PbfD2 (Mariniblastus fucicola, UniProt A0A5B9PNB8); assay: as above; type: binding; conditions: noncovalent; 10 μM FAD added at lysis; 50 mM TEA-HCl pH 8.0
T3 construct: gene pbfD; noncovalent FAD
T3 sequence (A0A5B9PNB8 1-373): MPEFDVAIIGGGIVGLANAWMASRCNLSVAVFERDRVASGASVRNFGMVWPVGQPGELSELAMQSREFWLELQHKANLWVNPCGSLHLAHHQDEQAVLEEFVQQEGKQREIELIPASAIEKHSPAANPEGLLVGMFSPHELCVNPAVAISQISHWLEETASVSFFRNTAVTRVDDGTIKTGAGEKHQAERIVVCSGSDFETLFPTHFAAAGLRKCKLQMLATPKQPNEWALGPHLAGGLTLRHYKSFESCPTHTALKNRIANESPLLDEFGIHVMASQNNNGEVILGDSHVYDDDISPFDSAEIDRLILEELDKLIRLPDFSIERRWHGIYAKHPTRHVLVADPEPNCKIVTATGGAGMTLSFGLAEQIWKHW

[4] = substrate: CN(C)CCP(=O)(O)O; assay: coupled PhnX-ADH assay, NADH A340, Michaelis-Menten fit; type: biochemical, Acinetobacter baumannii; conditions: air-saturated (~0.25 mM O2), 50 mM TEA-HCl pH 8.0, 2.5 mM MgCl2, 25°C
Description: (§1) coupled PhnX-ADH assay, NADH A340, Michaelis-Menten fit on PbfD1

[5] = substrate: CNCCP(=O)(O)O; assay: as above; type: biochemical, Acinetobacter baumannii; conditions: air-saturated (~0.25 mM O2), 50 mM TEA-HCl pH 8.0, 2.5 mM MgCl2, 25°C
Description: as §1

[6] = substrate: NCCP(=O)(O)O; assay: as above; type: biochemical, Acinetobacter baumannii; conditions: air-saturated (~0.25 mM O2), 50 mM TEA-HCl pH 8.0, 2.5 mM MgCl2, 25°C
Description: as §1

[7] = substrate: CNCCP(=O)(O)O; assay: purified protein
[8] = substrate: NCCP(=O)(O)O; assay: purified protein
[9] = air-saturated (~0.25 mM O2), 50 mM TEA-HCl pH 8.0, 2.5 mM MgCl2, 25°C
[10] = 80 μM DCPIP, 3 mM PMS, 50 mM TEA-HCl pH 8.0, 25°C

Molecule: Cc1cc2nc3c(=O)[nH]c(=O)nc-3n(C[C@H](O)[C@H](O)[C@H](O)COP(=O)(O)OP(=O)(O)OC[C@H]3O[C@@H](n4cnc5c(N)ncnc54)[C@H](O)[C@@H]3O)c2cc1C [FAD]
- UV-vis spectra of bound flavin; cofactor released by heat or SDS [1]: the spectrum of the released cofactor was typical of FAD
- UV-vis spectra of bound flavin; cofactor released by heat or SDS [2]: the spectrum of the released cofactor was typical of FAD
- UV-vis spectra of bound flavin; cofactor released by heat or SDS [3]: the spectrum of the released cofactor was typical of FAD

B1: PbfD1 (Acinetobacter baumannii) (protein)
chain: T2 sequence (P0DY72 1-384)
notes: synthetic codon-optimised gene in pET28a, N-terminal His tag, expressed in E. coli Tuner (DE3), HisTrap; noncovalent FAD
- Km [4]: 54 ± 14 mM
- kcat [4]: 22 ± 4.5 s⁻¹
- kcat/Km [4]: 400 ± 26 M⁻¹ s⁻¹
- Km [5]: 5.8 ± 0.62 mM
- kcat [5]: 13.2 ± 0.54 s⁻¹
- kcat/Km [5]: 2300 ± 160 M⁻¹ s⁻¹
- Km [6]: 71 ± 16 mM
- kcat [6]: 9.1 ± 1.7 s⁻¹
- kcat/Km [6]: 130 ± 6 M⁻¹ s⁻¹

B2: PbfD2 (Mariniblastus fucicola) (protein)
chain: T3 sequence (A0A5B9PNB8 1-373)
- Km [7, 9]: 0.36 ± 0.02 mM
- kcat [7, 9]: 4.9 ± 0.07 s⁻¹
- kcat/Km [7, 9]: 13500 ± 550 M⁻¹ s⁻¹
- Km [8, 9]: 2.6 ± 0.32 mM
- kcat [8, 9]: 8.9 ± 0.3 s⁻¹
- kcat/Km [8, 9]: 3400 ± 320 M⁻¹ s⁻¹

B3: PbfC (Azospirillum sp. B510) (protein)
chain: T1 sequence (P0DY71 1-415)
- Km [7, 10]: 0.20 ± 0.01 mM
- kcat [7, 10]: 9 ± 0.2 s⁻¹
- kcat/Km [7, 10]: 45000 ± 2700 M⁻¹ s⁻¹
- Km [8, 10]: 20 ± 1.7 mM
- kcat [8, 10]: 2.2 ± 0.1 s⁻¹
- kcat/Km [8, 10]: 110 ± 6 M⁻¹ s⁻¹
